Test results taken from paper PMC6416337.

Molecular target: 14-3-3λ (UniProt P48349)
Test: GST pull-down, anti-14-3-3 blot
Settings: reference: SOS2-JD without PKS5; sites S294

binding against the reference: stronger
Substance: SOS2 junction domain (SOS2-JD) (from UniProt Q9LDI3) SOS2-JD incubated with PKS5 and ATP
